# In US20260242478A1 (published 2026):
# Where no end group is shown, it is not given here.
# B1: Phage-477 (peptide)
# peptide: YCAGHSHEYLAKCE
# notes: also called YCAGHSHEYLAKCE
# B2: Phage-1981 (peptide)
# peptide: PPILCIPQWMCSPT
# modifications: cysteine pairing not given here; also: displayed as fusion to phage pIII
# B3: Phage-1986 (peptide)
# peptide: YEKWCTPPWMCEML
# notes: tested as crude phage supernatant
# B4: Phage-116 (peptide)
# peptide: MDWCPRDLWYACFA
# modifications: cysteine pairing not given here; also: phage-displayed pIII fusion, pIII and linker not given here
# B5: Phage-111 (peptide)
# peptide: MDWCPFYLWNECFY
# modifications: cysteine pairing not given here; also: phage-displayed pIII fusion, pIII and linker not given here
# B6: Phage-1339 (peptide)
# peptide: TCAAGATWSWPACF
# B7: Phage-113 (peptide)
# peptide: MDWCPRDLWNVCFF
# modifications: cysteine pairing not given here; also: phage-displayed pIII fusion, pIII and linker not given here
# B8: Phage-475 (peptide)
# peptide: YCAGHTEEHYVKCM
# B9: Phage-1336 (peptide)
# peptide: TCSAGASYPWPLCL
# B10: Phage-1342 (peptide)
# peptide: TCSAGAAYPWPLCL
# B11: Phage-1335 (peptide)
# peptide: LCAAGASWPWPVCL
# B12: Phage-1337 (peptide)
# peptide: TCAAGAAWPWPQCL
# B13: Phage-1334 (peptide)
# peptide: TCSAGATWPWPICL
# B14: Phage-1338 (peptide)
# peptide: TCSAGATYTWPKCF
# B15: Phage-1340 (peptide)
# peptide: TCAAGAAWGWPLCF
# B16: Phage-1984 (peptide)
# peptide: VVKMCRPAWMCDLV
# notes: as for B3
# B17: Phage-1983 (peptide)
# peptide: IFEWCVPAWMCESR
# notes: as for B3
# B18: Phage-1341 (peptide)
# peptide: LCAAGATYPWPLCL
# B19: Phage-1344 (peptide)
# peptide: LCAAGATYPWPTCL
# B20: Phage-1343 (peptide)
# peptide: TCSAGAAYSWPACF
# B21: Phage-112 (peptide)
# peptide: MHWCPRALWDVCYN
# modifications: cysteine pairing not given here; also: phage-displayed pIII fusion, pIII and linker not given here
# B22: Phage-1982 (peptide)
# peptide: VGMLCKPSWMCDWL
# notes: as for B3
# B23: Phage-476 (peptide)
# peptide: YCMGHSHEHIWKCL
# B24: Phage-1985 (peptide)
# peptide: LENWCIPRWMCHGF
# notes: as for B3
# B25: Phage-474 (peptide)
# peptide: YCAGHMPQYEVKCL
# B26: Phage-109 (peptide)
# peptide: MDWCPKNLWHVCFN
# modifications: cysteine pairing not given here; also: phage-displayed pIII fusion, pIII and linker not given here
# B27: Phage-114 (peptide)
# peptide: MDWCPRYLWFECFA
# modifications: cysteine pairing not given here; also: phage-displayed pIII fusion, pIII and linker not given here
# B28: Phage-473 (peptide)
# peptide: YCAGMSTIQLWLKC
# How the values were obtained:
# [1] = target: T1, Anti-CD28 Fab (SEQ ID NOs: 696, 697); assay: phage binding ELISA; biotinylated anti-CD28 Fab on neutravidin plate, clonal phage supernatant, anti-M13 HRP detection;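 also: wells pretreated with blocking buffer, either plus or minus CD28 antigen, then given crude phage supernatant briefly without washing in between, then washed before anti-M13 HRP readout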
# T1 construct: Biotinylated and captured on neutravidin coated plates in the phage ELISA
# Method: (§1) Clonal phage were harvested as crude supematants and screened via standard ELISAs. […] Prior to the addition of clonal phage, wells were incubated with blocking buffer and CD28 antigen or blocking buffer alone. Without washing or aspirating, clonal phage supematants were then added to the wells and incubated for a short time. Wells were then washed followed by detection of bound phage using a horse radish conjugated anti-M13 antibody.
# [2] = target: T1, Anti-CD28 Fab (SEQ ID NOs: 696, 697); assay: phage binding ELISA; Fab coated wells pre-incubated with CD28 antigen as competitor, anti-M13 HRP detection
# Method: as §1
# [3] = target: T2, Anti-PSMA Fab (SEQ ID NOs: 19, 20); assay: phage ELISA; biotinylated PSMA Fab on neutravidin plate, clonal phage supernatant, anti-M13-HRP detection;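 also: wells were preincubated with blocking buffer containing PSMA antigen or with blocking buffer only, then phage supernatant was added without washing for a brief incubation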
# T2 construct: Biotinylated and captured on neutravidin coated plates in the phage ELISA; also called 006 PSMA Fab
# Method: (§2) Clonal phage were harvested as crude supernatants and screened via standard ELISAs. […] Prior to the addition of clonal phage. wells were incubated with blocking buffer and PSMA antigen or blocking buffer alone. Without washing or aspirating, clonal phage supernatants were then added to the wells and incubated for a short time. Wells were then washed followed by detection of bound phage using a horse radish conjugated anti-M13 antibody.
# [4] = target: T2, Anti-PSMA Fab (SEQ ID NOs: 19, 20); assay: phage ELISA; PSMA Fab on plate pre-incubated with PSMA antigen as competitor, anti-M13-HRP detection;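 also: clonal phage from crude supernatants added without washing to wells preblocked with or without PSMA antigen, washed, bound phage read out by ELISA with HRP-linked anti-M13 antibody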
# Method: as §2
# [5] = target: T3, anti-CD28 scFv (VH - linker 1 - VL) (biotinylated (site not given)); assay: phage ELISA as above; wells pre-incubated with soluble CD28 as competitor;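 also: crude clonal phage supernatants tested, with bound phage detected by HRP-conjugated anti-M13 antibody, and reference wells given blocking buffer without CD28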
# T3 construct: Biotinylated scFv captured on neutravidin coated plates in the panning ELISA
# [6] = target: T3, anti-CD28 scFv (VH - linker 1 - VL); assay: phage ELISA; biotinylated anti-CD28 scFv on neutravidin plate, clonal phage supernatant, anti-M13 HRP
# Method: Clonal phage were harvested as crude supernatants and screened via standard enzyme linked immunosorbent assays (ELISAs). […] Prior to the addition of clonal phage, wells were incubated with blocking buffer and CD28 soluble protein or blocking buffer alone. Without washing or aspirating, clonal phage supernatants were then added to the wells and incubated for a short time. Wells were then washed followed by detection of bound phage using a horse radish peroxidase conjugated anti-M13 antibody.
# T3 sequence (scFv, as listed by the source): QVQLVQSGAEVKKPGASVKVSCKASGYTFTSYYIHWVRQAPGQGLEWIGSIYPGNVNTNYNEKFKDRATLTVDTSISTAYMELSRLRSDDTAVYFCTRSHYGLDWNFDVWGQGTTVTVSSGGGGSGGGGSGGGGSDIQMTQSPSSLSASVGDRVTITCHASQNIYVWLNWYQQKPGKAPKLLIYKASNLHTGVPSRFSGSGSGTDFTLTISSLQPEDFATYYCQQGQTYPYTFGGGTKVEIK
# T1 sequence (VH, as listed by the source, chain 1 of 2): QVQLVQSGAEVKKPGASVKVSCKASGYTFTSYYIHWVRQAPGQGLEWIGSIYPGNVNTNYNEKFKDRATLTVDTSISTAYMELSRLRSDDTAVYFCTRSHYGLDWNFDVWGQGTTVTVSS
# T1 sequence (VL, as listed by the source, chain 2 of 2): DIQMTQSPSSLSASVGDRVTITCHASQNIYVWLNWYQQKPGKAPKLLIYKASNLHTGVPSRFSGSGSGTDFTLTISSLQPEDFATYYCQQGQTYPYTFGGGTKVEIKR
Binder,"Anti-CD28 Fab (SEQ ID NOs: 696, 697) signal [1]",Anti-CD28 Fab signal in the presence of CD28 [2],other results
B1,0.86,0.06,
B2,,,"Phage binding ELISA, Anti-PSMA Fab signal [3]: 1.88; Phage binding ELISA, Anti-PSMA Fab signal in the presence of PSMA [4]: 0.0785"
B3,,,"Phage binding ELISA, Anti-PSMA Fab signal [3]: 1.88; Phage binding ELISA, Anti-PSMA Fab signal in the presence of PSMA [4]: 0.0833"
B4,,,CD28 scFv signal in presence of CD28 [5]: 0.242; CD28 scFv signal [6]: 2.47
B5,,,CD28 scFv signal in presence of CD28 [5]: 0.594; CD28 scFv signal [6]: 2.53
B6,2.23,0.07,
B7,,,CD28 scFv signal in presence of CD28 [5]: 0.137; CD28 scFv signal [6]: 2.52
B8,0.62,0.07,
B9,2.38,0.06,
B10,2.36,0.08,
B11,2.16,0.08,
B12,2.23,0.08,
B13,2,0.07,
B14,1.87,0.06,
B15,2.3,0.07,
B16,,,"Phage binding ELISA, Anti-PSMA Fab signal [3]: 1.88; Phage binding ELISA, Anti-PSMA Fab signal in the presence of PSMA [4]: 0.0833"
B17,,,"Phage binding ELISA, Anti-PSMA Fab signal [3]: 1.88; Phage binding ELISA, Anti-PSMA Fab signal in the presence of PSMA [4]: 0.104"
B18,2.39,0.07,
B19,1.71,0.06,
B20,1.89,0.15,
B21,,,CD28 scFv signal in presence of CD28 [5]: 0.24; CD28 scFv signal [6]: 2.53
B22,,,"Phage binding ELISA, Anti-PSMA Fab signal [3]: 1.88; Phage binding ELISA, Anti-PSMA Fab signal in the presence of PSMA [4]: 0.0813"
B23,0.87,0.07,
B24,,,"Phage binding ELISA, Anti-PSMA Fab signal [3]: 1.88; Phage binding ELISA, Anti-PSMA Fab signal in the presence of PSMA [4]: 0.152"
B25,0.22,0.06,
B26,,,CD28 scFv signal in presence of CD28 [5]: 0.248; CD28 scFv signal [6]: 2.53
B27,,,CD28 scFv signal in presence of CD28 [5]: 0.21; CD28 scFv signal [6]: 2.5
B28,2.16,0.09,
